Laboratory results taken from publication PMC6328559.
One block for each substance: values may come before it.

What was measured:
[1] = target: SLy1 SAM domain construct SAMwt (SLy1 residues P254-E321 with an N-terminal glycine from the tag) (mouse) (UniProt Q8K352); test: MST; Alexa Fluor 488 labelled protein kept constant (SAMwt 70 nM, SAMlg 60 nM), total protein varied (SAMwt 1.1-824 µM, SAMlg 0.2-250 µM); standard buffer pH 6.4, room temperature; fit to a monomer-dimer equilibrium; dimer to monomers
[2] = target: SLy1 SAM domain construct SAMwt (SLy1 residues P254-E321 with an N-terminal glycine from the tag) (mouse) (UniProt Q8K352); test: AUC; sedimentation equilibrium, 30 °C, standard buffer (50 mM potassium phosphate, 20 mM NaCl, 0.1 mM EDTA, pH 6.4) without NaN3; three loading concentrations (SAMwt 60, 120, 300 µM; SAMlg 31, 64, 98 µM) at several speeds; global fit to a monomer-dimer equilibrium; dimer to monomers
[3] = target: Yan SAM (Drosophila melanogaster) (UniProt Q01842); conditions: cited from earlier work
TEL SAM (Homo sapiens) = TEL SAM (Homo sapiens) (UniProt P41212); conditions: cited from earlier work

Yan SAM, sequence (Q01842 33-117): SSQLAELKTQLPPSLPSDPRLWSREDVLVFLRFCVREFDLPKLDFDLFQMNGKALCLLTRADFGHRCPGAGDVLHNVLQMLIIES
TEL SAM, sequence (P41212 40-124): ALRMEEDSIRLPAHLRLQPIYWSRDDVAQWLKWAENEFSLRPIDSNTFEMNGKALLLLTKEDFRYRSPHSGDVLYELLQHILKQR

Kd [1]: 153 µM | Ka [2]: 8500 M⁻¹ | Kd [2]: 117 µM | stoichiometry N [2]: 2
Substance: SLy1 SAM domain construct SAMwt (SLy1 residues P254-E321 with an N-terminal glycine from the tag) (from UniProt Q8K352 254-321) (domain or fragment)

Substance: Yan SAM (from UniProt Q01842)
Kd [3]: 11 µM

Substance: TEL SAM (from UniProt P41212)
Kd (TEL SAM (Homo sapiens)): 1.7 nM
